Columns and labels:
Kkay mice = assay: Long-term pharmacodynamic study in type 2 diabetes Kkay mice (Example 18); assay type: in vivo; details: subcutaneous, 100 and 300 μg/kg; for Reduction in HbA1c (FIG. 5c): 48 hours after the final administration; for Hypoglycemic effect, blood glucose and AUC (FIGS. 5a-5b): once every 2 days, 16 doses
Experimental: Compound 5 from Example 5 and Compound 2 from Example 2 were tested on type 2 diabetes Kkay mice. The mice were administered different doses of Compound 5 and Compound 2, at 100 and 300 μg/kg, respectively. The effects of the GLP-1 compounds in the GLP-1 pharmaceutical composition of the present invention on reducing blood glucose levels and HbA1c were measured.
Male Kkay mice, 12-14 weeks old, were housed in suitable cages under barrier conditions with free access to standard food and purified water. The environmental conditions were controlled at a relative humidity of 40%-60% and a temperature of 22° C.-24° C. After an adaptation period of 1-2 weeks, the mice were used for the experiment.
Basal blood glucose levels were assessed on the day of the experiment, and the mice were weighed. Based on random blood glucose and body weight, the diabetic mice were divided into a solvent group or a treatment group. The mice in the treatment group received subcutaneous injections of the GLP-1 compounds at doses of 100 and 300 μg/kg. The solvent consisted of propylene glycol (14 mg/ml), phenol (5.5 mg/ml), and disodium hydrogen phosphate (1.133 mg/ml) at pH 7.4.
Subcutaneous administration was performed at the nape of the neck (50 μl/10 g body weight). The GLP-1 compound in the GLP-1 pharmaceutical composition of the present invention or the solvent were administered at approximately 10:00 am (time 0), once every 2 days for a total of 16 doses. Blood glucose levels in the mice were evaluated at 3 hours, 6 hours, 1 day, and 2 days after the initial administration. HbA1c was measured 48 hours after the final administration using EDTA anticoagulant.

[1] = Chemical stability: related substances by HPLC after storage (Example 17); assay type: physicochemical
Experimental: The content of related impurities was determined using high-performance liquid chromatography (HPLC) on a Waters Kromasil 100-3.5-C8 (4.6*250 mm) column. The column temperature was set at 35° C., and the sample chamber temperature was set at 5° C. The elution was performed at a flow rate of 1.0 ml/min. The eluent consisted of the following components: • Phase A: 90 mM potassium dihydrogen phosphate and 10% acetonitrile (v/v), pH 2.4 • Phase B: 75% acetonitrile (v/v)
The gradient was as follows: linear change of 75%/25% A/B to 55%/45% A/B from 0 to 5 minutes, linear change from 5 to 12 minutes to 50%/50% A/B, linear change from 12 to 42 minutes to 40%/60% A/B, linear change from 42 to 60 minutes to 10%/90% A/B, linear change from 60 to 61 minutes to 75%/25% A/B, and steady gradient of 75%/25% A/B from 61 to 70 minutes.
Detection wavelength was set at 214 nm, flow rate at 1.0 ml/min, and injection volume at 15 μl.

[2] = oral semaglutide tablets (RYBELSUS) with SNAC, clinical studies; cited from earlier work

| Substance | Reduction in HbA1c (FIG. 5c) (Kkay mice) | Hypoglycemic effect, blood glucose and AUC (FIGS. 5a-5b) (Kkay mice) | Maximum individual impurity % ([1]; 25° C./60% RH, 15 month) [%] | Purity of compound 5 % ([1]; 25° C./60% RH, 15 month) [%] | Total impurities % ([1]; 25° C./60% RH, 15 month) [%] | Maximum individual impurity % ([1]; 30° C./65% RH, 1 month) [%] | Purity of compound 5 % ([1]; 30° C./65% RH, 1 month) [%] | Total impurities % ([1]; 30° C./65% RH, 1 month) [%] | Maximum individual impurity % ([1]; 30° C./65% RH, 2 month) [%] | Purity of compound 5 % ([1]; 30° C./65% RH, 2 month) [%] | Total impurities % ([1]; 30° C./65% RH, 2 month) [%] | Maximum individual impurity % ([1]; 30° C./65% RH, 3 month) [%] | Purity of compound 5 % ([1]; 30° C./65% RH, 3 month) [%] | Total impurities % ([1]; 30° C./65% RH, 3 month) [%] | Maximum individual impurity % ([1]; 30° C./65% RH, time 0) [%] | Purity of compound 5 % ([1]; 30° C./65% RH, time 0) [%] | Total impurities % ([1]; 30° C./65% RH, time 0) [%] | Bioavailability [2] |
| --- | --- | --- | --- | --- | --- | --- | --- | --- | --- | --- | --- | --- | --- | --- | --- | --- | --- | --- |
| N-ε^26-[2-(2-[2-(4-[19-carboxynonadecanoylamino]-4(S) -carboxybutanoylamino)ethoxy]ethoxy)acetyl][Gly8, Arg34]GLP-1-(7-37) peptide [Compound 2] | significant reduction in HbA1c | significant hypoglycemic effects |  |  |  |  |  |  |  |  |  |  |  |  |  |  |  |  |
| N-ε^26-[2-(2-[2-(2-[2-(2-[4-(21-carboxyheneicosanoylamino)-4(S) -carboxybutanoylamino]ethoxy)ethoxy]acetylamino)ethoxy]ethoxy)acetyl][Gly8, Arg34]GLP-1-(7-37) peptide [Compound 5] | significant reduction in HbA1c | significant hypoglycemic effects | 0.97 | 96.14 | 3.86 | 0.76 | 96.85 | 3.15 | 1.03 | 96.67 | 3.33 | 0.93 | 95.19 | 4.81 | 0.73 | 96.5 | 3.5 |  |
| semaglutide |  |  |  |  |  |  |  |  |  |  |  |  |  |  |  |  |  | around 1% |
